Assay results from US20220089743A1 (Chugai, published 2022).
Positions count from the first letter of the chain named. Like-named read-outs stand apart in the source and are kept apart here.

Experiments:
HLA-DP on Ba/F3 cells = target: T1, HLA-DP on Ba/F3 cells (human, UniProt P20036 29-222; P04440 30-225, limits assumed); experiment: FACS, Ba/F3 cells; raw MFI
T1 construct: whole, on cells; also called Ba/F3-HLA-DP

HLA-DQ6.3 on Ba/F3 cells = target: T2, HLA-DQ6.3 on Ba/F3 cells (human, UniProt P01920 33-230, limits assumed); experiment: FACS, Ba/F3 cells; raw MFI
T2 construct: whole, on cells; also called Ba/F3-HLA-DQ6.3
T2 MHC II alpha: not shown
T2 MHC II beta: not shown

HLA-DR on Ba/F3 cells = target: T3, HLA-DR on Ba/F3 cells (human, UniProt P01903 26-216; P79483 30-227, limits assumed); experiment: FACS, Ba/F3 cells; raw MFI
T3 construct: whole, on cells; also called Ba/F3-HLA-DR
T3 MHC II alpha: not shown
T3 MHC II beta: not shown

HLA-DQ5.1 on Ba/F3 cells = target: T4, HLA-DQ5.1 on Ba/F3 cells (human, limits assumed); experiment: FACS, Ba/F3 cells; raw MFI
T4 construct: whole, on cells; also called Ba/F3-HLA-DQ5.1
T4 MHC II alpha: not shown
T4 MHC II beta: not shown

[1] = target: HLA-DQ2.5 on IHW09023 cells loaded with BC hordein peptide (human; barley); experiment: cell-based or functional assay
[2] = target: HLA-DQ2.5 on IHW09023 cells loaded with gamma 2 gliadin peptide (human; wheat); experiment: cell-based or functional assay
[3] = target: HLA-DQ2.5 on IHW09023 cells loaded with gamma 4d gliadin peptide (human; wheat); experiment: cell-based or functional assay
[4] = target: HLA-DQ2.5 on IHW09023 cells loaded with gamma 3 gliadin peptide (human; wheat); experiment: cell-based or functional assay
[5] = target: HLA-DQ2.5 on IHW09023 cells loaded with gamma 4a gliadin peptide (human; wheat); experiment: cell-based or functional assay
[6] = target: HLA-DQ2.5 on IHW09023 cells loaded with gamma 1 gliadin peptide (human; wheat); experiment: cell-based or functional assay
[7] = target: HLA-DQ2.5 on IHW09023 cells loaded with omega1/2 gliadin peptide (human; wheat); experiment: cell-based or functional assay
[8] = target: HLA-DQ2.5 on IHW09023 cells loaded with 33 mer gliadin peptide (human; wheat); experiment: cell-based or functional assay
HLA-DQ7.5 on Ba/F3 cells [9] = target: T5, HLA-DQ7.5 on Ba/F3 cells (human, UniProt P01909 24-216; P01920 33-230, limits assumed); experiment: FACS, Ba/F3 cells; %MFI with IC17dK 0 and DQN0139bb 100
T5 construct: whole, on cells; also called Ba/F3-HLA-DQ7.5

HLA-DQ2.5 on Ba/F3 cells [10] = target: T6, HLA-DQ2.5 on Ba/F3 cells (human, UniProt P01909 24-216, limits assumed); experiment: as above
T6 construct: whole, on cells; MHC class II without a fused peptide; also called Ba/F3-HLA-DQ2.5

HLA-DQ7.3 on Ba/F3 cells [11] = target: T7, HLA-DQ7.3 on Ba/F3 cells (human, UniProt P01909 24-216; P01920 33-230, limits assumed); experiment: as above
T7 construct: whole, on cells; also called Ba/F3-HLA-DQ7.3
T7 MHC II alpha: not shown
T7 MHC II beta: not shown

HLA-DQ8 on Ba/F3 cells [12] = target: T8, HLA-DQ8 on Ba/F3 cells (human, UniProt P01909 24-216; P01920 33-230, limits assumed); experiment: as above
T8 construct: whole, on cells; also called Ba/F3-HLA-DQ8
T8 MHC II alpha: not shown
T8 MHC II beta: not shown

HLA-DQ2.2 on Ba/F3 cells [13] = target: T9, HLA-DQ2.2 on Ba/F3 cells (human, UniProt P01909 24-216, limits assumed); experiment: as above
T9 construct: whole, on cells; also called Ba/F3-HLA-DQ2.2
T9 MHC II alpha: not shown
T9 MHC II beta: not shown

HLA-DQ7.5 on Ba/F3 cells [14] = target: T5, HLA-DQ7.5 on Ba/F3 cells; experiment: as above; remark: listed apart in the source
HLA-DQ2.5 on Ba/F3 cells [15] = target: T6, HLA-DQ2.5 on Ba/F3 cells; experiment: as above; remark: listed apart in the source
HLA-DQ7.3 on Ba/F3 cells [16] = target: T7, HLA-DQ7.3 on Ba/F3 cells; experiment: as above
HLA-DQ8 on Ba/F3 cells [17] = target: T8, HLA-DQ8 on Ba/F3 cells; experiment: as above
HLA-DQ2.2 on Ba/F3 cells [18] = target: T9, HLA-DQ2.2 on Ba/F3 cells; experiment: as above
HLA-DQ7.5 on Ba/F3 cells [19] = target: T5, HLA-DQ7.5 on Ba/F3 cells; experiment: as above; remark: listed apart in the source
HLA-DQ2.5 on Ba/F3 cells [20] = target: T6, HLA-DQ2.5 on Ba/F3 cells; experiment: as above; remark: listed apart in the source
HLA-DQ7.3 on Ba/F3 cells [21] = target: T7, HLA-DQ7.3 on Ba/F3 cells; experiment: as above
HLA-DQ8 on Ba/F3 cells [22] = target: T8, HLA-DQ8 on Ba/F3 cells; experiment: as above
HLA-DQ2.2 on Ba/F3 cells [23] = target: T9, HLA-DQ2.2 on Ba/F3 cells; experiment: as above

T1 sequence (P20036 29-222 limits assumed, chain 1 of 4, other chains not shown): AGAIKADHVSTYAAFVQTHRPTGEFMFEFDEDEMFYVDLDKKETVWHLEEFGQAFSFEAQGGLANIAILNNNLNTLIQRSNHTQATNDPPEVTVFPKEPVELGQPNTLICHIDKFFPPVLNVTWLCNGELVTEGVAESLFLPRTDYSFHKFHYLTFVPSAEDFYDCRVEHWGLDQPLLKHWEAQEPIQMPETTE
T1 sequence (P04440 30-225 limits assumed, chain 2 of 4, other chains not shown): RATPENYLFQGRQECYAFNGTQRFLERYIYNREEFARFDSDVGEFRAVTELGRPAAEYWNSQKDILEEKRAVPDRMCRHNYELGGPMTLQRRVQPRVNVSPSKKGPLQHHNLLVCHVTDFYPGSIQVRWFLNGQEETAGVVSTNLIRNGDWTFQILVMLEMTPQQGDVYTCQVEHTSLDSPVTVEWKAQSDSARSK

B1: DQN0344H1013/L0620//DQN0385H1270/L0722-F6 (bispecific antibody)
heavy 1: QVQLVESGGGVVQPGRSLRLSCAASGFTFSSAYWMVWVRQAPGQGLEWMGAVYGGSDTTYYAKWTEGRFTISRDTSKNTLYLQMNSLRAEDTAVYYCAREPLNYYYYGELNVWGQGTLVTVSSASTKGPSVFPLAPSSKSTSGGTAALGCLVKDYFPEPVTVSWNSGALTSGVHTFPAVLKSSGLYSLSSVVTVPSSSLGTQTYICNVNHKPSNTKVDKRVEPKSCDKTHTCPPCPAPELRRGPSVFLFPPKPKDTLMISRTPEVTCVVVDVSHEDPEVKFNWYVDGVEVHNAKTKPREEQYNSTYRVVSVLTVLHQDWLNGKEYKCKVSNKALPAPIEKTISKAKGQPREPQVYTLPPSREEMTKNQVSLTCLVKGFYPSDIAVEWESNGQPENNYKTTPPYLDSDGSFFLYSKLTVDKSRWQEGNVFSCSVLHEALHAHYTREELSLSP
light 1: DIQMTQSPSSLSASVGDRVTITCQATENIYSGLAWYQQKPGKAPKLLIYYVSTLAYGIPARFSGSGSGTDFTLTISSLEPEDFAVYYCQTYEDVSAVTFGQGTKVEIKRTVAAPSVFIFPPSDEQLKSGTAEVVCLLNNFYPREAKVQWKVDNALQSGNSEESVTEQDSKDSTYSLSSTLTLSKADYEKHKVYACEVTHQGLSSPVTKSFNRGEC
heavy 2: QVQLVESGGGVVQPGRSLRLSCAASGFTFSEWYFMSWVRQAPGKGLEWVASIDTGSGSIDYAEWVEGRFTISRDNSKNTLYLQMNSLRAEDTAVYYCARDIGIDYNFWGPGTLVTVSSASTKGPSVFPLAPSSKSTSGGTAALGCLVEDYFPEPVTVSWNSGALTSGVHTFPAVLESSGLYSLSSVVTVPSSSLGTKTYICNVNHKPSNTKVDKRVEPKSCDKTHTCPPCPAPELRRGPSVFLFPPKPKDTLMISRTPEVTCVVVDVSHEDPEVKFNWYVDGVEVHNAKTKPREEQYNSTYRVVSVLTVLHQDWLNGKEYKCKVSNKALPAPIEKTISKAKGQPREPQVYTLPPSRKEMTKNQVSLTCLVKGFYPSDIAVEWESNGQPENNYKTTPPYLDSDGSFFLYSKLTVDKSRWQQGNVFSCSVLHEALHAHYTRKELSLSP
light 2: DIQMTQSPSSLSASVGDRVTITCQTTQSISSYLNWYQQKPGQPPKLLIYYASTKAEGIPARFSGSGLGTDFTLTISSLQPEDFAVYYCHYGISKVSFGQGTKVEIKRTVAAPSVFIFPPSDEQLKSGTAKVVCLLNNFYPREAKVQWKVDNALQSGNSKESVTEQDSKDSTYSLSSTLTLSKADYEKHKVYACEVTHQGLSSPVTKSFNRGEC
binding result (HLA-DP on Ba/F3 cells): no binding (tested: 0.05 ug/mL)
binding result (HLA-DQ6.3 on Ba/F3 cells): no binding (tested: 0.05 ug/mL)
binding result (HLA-DR on Ba/F3 cells): no binding (tested: 0.05 ug/mL)
binding result (HLA-DQ5.1 on Ba/F3 cells): no binding (tested: 0.05 ug/mL)
IC50, BC hordein TCR, 250 nM BC hordein [1]: 9.7 ng/mL
IC50, γ2 gliadin TCR, 250 nM γ2 gliadin [2]: 277 ng/mL
IC50, γ4d gliadin TCR, 100 µM γ4d gliadin [3]: 10.1 ng/mL
IC50, γ3 gliadin TCR, 100 µM γ3 gliadin [4]: 3.31 ng/mL
IC50, γ4a gliadin TCR, 25 µM γ4a gliadin [5]: 1150 ng/mL
IC50, γ1 gliadin TCR, 250 nM γ1 gliadin [6]: 1.03 ng/mL
IC50, ω1 gliadin TCR, 25 µM ω1/2 gliadin [7]: 2.17 ng/mL
IC50, ω2 gliadin TCR, 250 nM ω1/2 gliadin [7]: 0.22 ng/mL
IC50, α1a gliadin TCR, 250 nM 33mer gliadin [8]: 0.27 ng/mL
IC50, α1b gliadin TCR, 250 nM 33mer gliadin [8]: 1.25 ng/mL
IC50, α2 gliadin TCR, 250 nM 33mer gliadin [8]: 0.33 ng/mL
binding result (HLA-DQ7.5 on Ba/F3 cells [9]): no binding (tested: 0.05 ug/mL)
binding result (HLA-DQ2.5 on Ba/F3 cells [10]): no binding (tested: 0.05 ug/mL)
binding result (HLA-DQ7.3 on Ba/F3 cells [11]): no binding (tested: 0.05 ug/mL)
binding result (HLA-DQ8 on Ba/F3 cells [12]): no binding (tested: 0.05 ug/mL)
binding result (HLA-DQ2.2 on Ba/F3 cells [13]): no binding (tested: 0.05 ug/mL)

B2: DQN0344H1013/L0620//DQN0385H1352/L0681-F6 (bispecific antibody)
heavy 1: B1 heavy 1
light 1: B1 light 1
heavy 2: B1 heavy 2 with T28E
light 2: B1 light 2 with Q79E
binding result (HLA-DQ7.5 on Ba/F3 cells [14]): no binding (tested: 0.05 ug/mL)
binding result (HLA-DQ2.5 on Ba/F3 cells [15]): no binding (tested: 0.05 ug/mL)
binding result (HLA-DQ7.3 on Ba/F3 cells [16]): no binding (tested: 0.05 ug/mL)
binding result (HLA-DQ8 on Ba/F3 cells [17]): no binding (tested: 0.05 ug/mL)
binding result (HLA-DQ2.2 on Ba/F3 cells [18]): no binding (tested: 0.05 ug/mL)
binding result (HLA-DP on Ba/F3 cells): no binding (tested: 0.05 ug/mL)
binding result (HLA-DQ6.3 on Ba/F3 cells): no binding (tested: 0.05 ug/mL)
binding result (HLA-DR on Ba/F3 cells): no binding (tested: 0.05 ug/mL)
binding result (HLA-DQ5.1 on Ba/F3 cells): no binding (tested: 0.05 ug/mL)
IC50, BC hordein TCR, 250 nM BC hordein [1]: 11.6 ng/mL
IC50, γ2 gliadin TCR, 250 nM γ2 gliadin [2]: 279 ng/mL
IC50, γ4d gliadin TCR, 100 µM γ4d gliadin [3]: 3.15 ng/mL
IC50, γ3 gliadin TCR, 100 µM γ3 gliadin [4]: 3.15 ng/mL
IC50, γ4a gliadin TCR, 25 µM γ4a gliadin [5]: 1730 ng/mL
IC50, γ1 gliadin TCR, 250 nM γ1 gliadin [6]: 1.71 ng/mL
IC50, ω1 gliadin TCR, 25 µM ω1/2 gliadin [7]: 1.88 ng/mL
IC50, ω2 gliadin TCR, 250 nM ω1/2 gliadin [7]: 0.27 ng/mL
IC50, α1a gliadin TCR, 250 nM 33mer gliadin [8]: 0.26 ng/mL
IC50, α1b gliadin TCR, 250 nM 33mer gliadin [8]: 1.13 ng/mL
IC50, α2 gliadin TCR, 250 nM 33mer gliadin [8]: 0.38 ng/mL

B3: DQN0344H1013/L0620//DQN0385H1521/L0605-F6 (bispecific antibody)
heavy 1: B1 heavy 1
light 1: B1 light 1
heavy 2: B1 heavy 2 with S30E, E31S
light 2: B1 light 2 with L67S, Q79E
binding result (HLA-DP on Ba/F3 cells): no binding (tested: 0.05 ug/mL)
binding result (HLA-DQ6.3 on Ba/F3 cells): no binding (tested: 0.05 ug/mL)
binding result (HLA-DR on Ba/F3 cells): no binding (tested: 0.05 ug/mL)
binding result (HLA-DQ5.1 on Ba/F3 cells): no binding (tested: 0.05 ug/mL)
binding result (HLA-DQ7.5 on Ba/F3 cells [19]): no binding (tested: 0.05 ug/mL)
binding result (HLA-DQ2.5 on Ba/F3 cells [20]): no binding (tested: 0.05 ug/mL)
binding result (HLA-DQ7.3 on Ba/F3 cells [21]): no binding (tested: 0.05 ug/mL)
binding result (HLA-DQ8 on Ba/F3 cells [22]): no binding (tested: 0.05 ug/mL)
binding result (HLA-DQ2.2 on Ba/F3 cells [23]): no binding (tested: 0.05 ug/mL)
IC50, BC hordein TCR, 250 nM BC hordein [1]: 8.98 ng/mL
IC50, γ2 gliadin TCR, 250 nM γ2 gliadin [2]: 853 ng/mL
IC50, γ4d gliadin TCR, 100 µM γ4d gliadin [3]: 13 ng/mL
IC50, γ3 gliadin TCR, 100 µM γ3 gliadin [4]: 1.4 ng/mL
IC50, γ4a gliadin TCR, 25 µM γ4a gliadin [5]: 1350 ng/mL
IC50, γ1 gliadin TCR, 250 nM γ1 gliadin [6]: 0.68 ng/mL
IC50, ω1 gliadin TCR, 25 µM ω1/2 gliadin [7]: 1.91 ng/mL
IC50, α1a gliadin TCR, 250 nM 33mer gliadin [8]: 0.28 ng/mL
IC50, α1b gliadin TCR, 250 nM 33mer gliadin [8]: 1.76 ng/mL
IC50, α2 gliadin TCR, 250 nM 33mer gliadin [8]: 0.33 ng/mL
